According to patent US20010052137:

How the values were obtained:
[1] = tested on: Myc-tagged N-term fragment of Xaxin (amino acid residues 63-288)
[2] = tested on: T1, Myc-tagged C-term fragment of Xaxin (amino acid residues 429-713)
T1 sequence: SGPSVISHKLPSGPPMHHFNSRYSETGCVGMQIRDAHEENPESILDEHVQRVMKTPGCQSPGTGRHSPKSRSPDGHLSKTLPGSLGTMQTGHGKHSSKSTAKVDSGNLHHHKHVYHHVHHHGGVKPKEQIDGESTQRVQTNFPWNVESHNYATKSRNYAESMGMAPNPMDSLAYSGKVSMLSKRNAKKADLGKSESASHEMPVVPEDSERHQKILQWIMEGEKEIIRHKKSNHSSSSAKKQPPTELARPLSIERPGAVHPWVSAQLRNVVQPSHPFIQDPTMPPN

[3] = tested on: T2, Myc-tagged deltaRGS construct of Xaxin (amino acid residues 1-80 fused to residues 290-842)
T2 sequence: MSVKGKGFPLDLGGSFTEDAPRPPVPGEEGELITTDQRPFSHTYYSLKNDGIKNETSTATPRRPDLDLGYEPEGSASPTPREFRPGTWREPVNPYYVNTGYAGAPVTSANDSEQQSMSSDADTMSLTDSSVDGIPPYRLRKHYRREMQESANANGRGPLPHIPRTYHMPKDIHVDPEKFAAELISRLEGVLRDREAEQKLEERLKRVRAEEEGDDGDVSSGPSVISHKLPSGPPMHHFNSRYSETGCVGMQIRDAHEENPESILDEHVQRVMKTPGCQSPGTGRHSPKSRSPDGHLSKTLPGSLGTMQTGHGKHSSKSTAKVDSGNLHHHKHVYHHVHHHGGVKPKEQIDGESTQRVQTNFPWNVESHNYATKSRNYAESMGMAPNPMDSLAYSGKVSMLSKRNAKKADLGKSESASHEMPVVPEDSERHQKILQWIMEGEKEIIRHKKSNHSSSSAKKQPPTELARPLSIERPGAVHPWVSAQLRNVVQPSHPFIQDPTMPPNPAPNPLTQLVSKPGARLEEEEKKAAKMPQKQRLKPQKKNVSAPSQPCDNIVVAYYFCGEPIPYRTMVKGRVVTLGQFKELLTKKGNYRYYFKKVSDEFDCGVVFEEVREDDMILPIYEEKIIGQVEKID

[4] = tested on: Myc-tagged deltaGID construct of Xaxin (amino acid residues 1-324 fused to residues 504-842)
[5] = tested on: Myc-tagged deltaDIX construct of Xaxin (amino acid residues 1-778)
[6] = tested on: Myc-tagged full length Xenopus axin (FL Xaxin, amino acid residues 1-842)
[7] = tested on: T3, Myc-tagged GID-1 fragment of Xaxin (amino acid residues 277-545)
T3 sequence: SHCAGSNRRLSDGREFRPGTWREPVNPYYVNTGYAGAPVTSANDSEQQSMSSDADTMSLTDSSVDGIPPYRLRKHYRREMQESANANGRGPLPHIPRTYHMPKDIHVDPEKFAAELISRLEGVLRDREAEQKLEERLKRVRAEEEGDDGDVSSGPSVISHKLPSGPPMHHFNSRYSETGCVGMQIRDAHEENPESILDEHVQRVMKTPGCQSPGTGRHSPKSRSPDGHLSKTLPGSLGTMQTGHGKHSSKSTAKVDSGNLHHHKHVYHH

Chain of Myc-tagged N-term fragment of Xaxin (amino acid residues 63-288) (chain, as listed by the source): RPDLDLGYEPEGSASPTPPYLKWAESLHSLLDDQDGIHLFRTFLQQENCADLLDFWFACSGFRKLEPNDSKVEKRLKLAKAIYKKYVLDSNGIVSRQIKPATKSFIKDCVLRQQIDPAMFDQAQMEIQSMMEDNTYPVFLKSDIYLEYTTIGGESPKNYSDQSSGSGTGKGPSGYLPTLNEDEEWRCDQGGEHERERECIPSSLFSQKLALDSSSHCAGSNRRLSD

GSK-3 beta (glycogen synthase kinase-3 beta) expressed in Xenopus oocytes
GSK-3 beta-mediated tau phosphorylation in Xenopus oocytes (PHF-1 immunoblot) [1]: had no effect on GSK-3 beta activity
GSK-3 beta-mediated tau phosphorylation in Xenopus oocytes (PHF-1 immunoblot) [2]: had no effect on GSK-3 beta activity
tau protein phosphorylation mediated by GSK-3 beta in Xenopus oocytes [3]: inhibited tau protein phosphorylation mediated by GSK-3 beta in a dose-dependent manner
GSK-3 beta activity in the tau-phosphorylation assay in Xenopus oocytes [4]: had no discernible effect on GSK-3 beta activity in the tau-phosphorylation assay
GSK-3 beta activity (tau phosphorylation assay in Xenopus oocytes) [5]: partially inhibited GSK-3 beta activity
GSK-3 beta-mediated tau phosphorylation in Xenopus oocytes (PHF-1 immunoblot) [6]: had no discernible effect on tau phosphorylation
GSK-3 beta mediated tau phosphorylation in Xenopus oocytes [7]: bound GSK-3 beta and inhibited GSK-3 beta mediated tau phosphorylation
GSK-3 beta-mediated tau phosphorylation in Xenopus oocytes (PHF-1 immunoblot) [7]: virtually complete inhibition of GSK-3 beta-mediated tau phosphorylation
